Measured values: patent US20020045564A1, “Methods of modulating muscle contraction” (priority 1997, published 2002)

Experiments:
cardiac LC20 = target: T1, cardiac LC20 (Homo sapiens, UniProt P10916); test: In vitro phosphorylation of cardiac LC20; format: biochemical
T1 construct: using isolated cardiac myofibrils and associated proteins; from tissue
T1 sequence (P10916 1-166): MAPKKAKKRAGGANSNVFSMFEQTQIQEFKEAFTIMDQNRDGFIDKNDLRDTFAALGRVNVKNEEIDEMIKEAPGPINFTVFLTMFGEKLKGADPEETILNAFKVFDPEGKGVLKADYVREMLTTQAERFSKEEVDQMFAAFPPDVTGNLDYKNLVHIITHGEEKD
Description: In vitro phosphorylation of intact smooth, skeletal, cardiac, platelet, and Dictyostelium myosin and isolated LC20, caldesmon, and caldesmon fragments, and cardiac and skeletal Tn were carried out at 25° C. in 10 mM Tris, pH 7.0, 50 mM sodium chloride, 1 mM [γ^32P]ATP (5×10^5 cpm per nmol) or at 37° C. in the same buffer except containing 150 mM sodium chloride. Aliquots of the reaction mixture were analyzed for protein phosphorylation using Whatman P81 paper and SDS-gel electrophoresis/autoradiography as previously described (Childs, T. J. et al. 1992. J. Biol. Chem. 267:22853-22859). In the case of cardiac and skeletal Tn, the three Tn subunits (TnI, TnT, and TnC) were separated by reversed phase HPLC. The individual subunits were analyzed for incorporation of ^32P (i.e., phosphorylation by PAK) by SDS-PAGE and autoradiography and direct counting.
Phosphorylated amino acids were identified by thin-layer electrophoresis after partial hydrolysis of the phosphorylated proteins in 6 N hydrochloric acid as previously described (Childs, T. J. et al. 1992. J. Biol. Chem. 267:22853-22859; Mak, A. S. et al. 1991. J. Biol. Chem. 266:19971-19975; Mak, A. S. et al. 1991. J. Biol. Chem. 266:6678-6681). […]

[1] = target: smooth muscle myosin ATPase (Gallus gallus, UniProt P02607+P10587); test: Actin-tropomyosin activated ATPase activity of smooth muscle subfragment 1 (S1); format: biochemical; conditions: FIG. 6
Chain of smooth muscle myosin ATPase (P10587 84-789 limits assumed): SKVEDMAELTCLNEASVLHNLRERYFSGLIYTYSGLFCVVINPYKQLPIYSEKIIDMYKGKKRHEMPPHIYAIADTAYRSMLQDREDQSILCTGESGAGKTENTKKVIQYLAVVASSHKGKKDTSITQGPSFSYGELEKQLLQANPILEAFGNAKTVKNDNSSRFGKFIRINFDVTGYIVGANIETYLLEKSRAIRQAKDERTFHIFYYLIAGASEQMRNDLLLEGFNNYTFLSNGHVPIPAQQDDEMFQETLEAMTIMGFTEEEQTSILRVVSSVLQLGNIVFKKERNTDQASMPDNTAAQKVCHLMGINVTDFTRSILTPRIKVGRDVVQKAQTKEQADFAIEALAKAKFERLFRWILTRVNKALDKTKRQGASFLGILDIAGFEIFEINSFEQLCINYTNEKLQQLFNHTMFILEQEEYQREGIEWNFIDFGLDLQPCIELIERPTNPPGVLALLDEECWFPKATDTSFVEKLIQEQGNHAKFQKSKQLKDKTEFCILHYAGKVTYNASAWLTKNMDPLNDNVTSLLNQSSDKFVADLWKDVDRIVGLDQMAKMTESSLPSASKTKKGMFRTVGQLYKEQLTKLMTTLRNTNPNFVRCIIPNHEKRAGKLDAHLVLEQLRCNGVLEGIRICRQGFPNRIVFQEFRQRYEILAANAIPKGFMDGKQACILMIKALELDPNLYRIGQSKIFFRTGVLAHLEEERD
Chain of smooth muscle myosin ATPase (P02607 2-151 limits assumed): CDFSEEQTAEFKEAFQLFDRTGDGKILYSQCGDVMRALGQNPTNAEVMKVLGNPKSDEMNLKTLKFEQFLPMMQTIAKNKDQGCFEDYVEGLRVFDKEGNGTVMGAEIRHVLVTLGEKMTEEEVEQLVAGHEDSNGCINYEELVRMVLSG
Description: Reactions consisted of 10 μM actin, 2 μM tropomyosin, 0.5 μM S1, and variable concentrations of unphosphorylated and phosphorylated caldesmon. The buffer contained 40 mM Tris-HCl pH 7.8, 50 mM KCl, 5 mM MgCl2, 1 mM DTT at 37° C. Reactions were performed in a 96 well microtitre plate, triggered by the addition of 4 mM ATP. The phosphate assay was performed according to the method of Chifflet, S. et al. 1988. (Anal. Biochem. 168:1-4). Briefly, reactions were terminated by the addition of an equal volume (100 μL) of reagent which contained 6% (w/v) SDS, 3% (w/v) ascorbic acid, 1M HCl, 0.5% (w/v) ammonium molybdate. The mixture was incubated for 5 minutes prior to the addition of a second reagent which contained 2% sodium citrate, 2% sodium m-arsenite, and 2% acetic acid. Blue colour developed quickly over 5 minutes. Microtitre plates were read at 650 nm on an E-max ELISA plate reader (Molecular Dynamics, Sunnyvale Calif.). Phosphate was determined by comparing experimental values to standard phosphate values obtained through dilution of phosphate-buffered saline (PBS).

actin-tropomyosin = test: Actin-tropomyosin binding assay (centrifugation); conditions: FIG. 5
Description: To quantitate the amount of smooth muscle caldesmon and smooth muscle tropomyosin bound to the skeletal actin thin filament (>95% amino acid homology to smooth muscle actin), centrifugation studies were carried out in binding buffer consisting of 20 mM Tris-HCl pH 7.2, 10 mM KCl, 5 mM MgCl2 and 1 mM DTT. The concentration of actin was 5 nmole/200 μl (˜25 μM) and the mole ratio of actin to tropomyosin was 7:2. Increasing quantities of unphosphorylated or phosphorylated caldesmon were added to the actin-tropomyosin mixture. Protein concentrations were determined by the Lowry method or by absorbance at 280 nm. Samples were spun for 30 min at approximately 95,000 rpm, resulting in the pelleting of over 95% of the actin. The obtained pellets were dissolved in 100 μl of 0.05% aqueous trifluroacetic acid (TFA) and injected on a Zorbax C8 SB300 reversed-phase column (4.6 mm×250 mm) on a Varian HPLC system (Star series). The various proteins were eluted using a 2% B/min linear A/B gradient with a 5 min initial isocratic hold, where solvent A is 0.05% aqueous TFA and solvent B is 0.05% TFA in acetonitrile. The flow rate was 1 ml/min. The peak areas were determined at 210 nm and converted to nanomoles using a standard curve obtained for each protein. […] The experiments were done in triplicate and the standard deviation calculated.

inhibition of smooth muscle myosin ATPase activity [1]	change in affinity of caldesmon for actin(-tropomyosin), phosphorylated vs unphosphorylated (actin-tropomyosin)	Molecule	phosphorylation of cardiac LC20 (cardiac LC20)
		MLCK: myosin light chain kinase purified from chicken gizzard	0.2 mol phosphate per mol protein
inhibition was clearly released	approximately two-fold reduction	PAK-phosphorylated caldesmon: caldesmon phosphorylated by PAK (protein, UniProt P12957 1-771, looked up, phosphorylated by PAK) Caldesmon: MDDFERRRELRRQKREEMRLEAERLSYQRNDDDEEEAARERRRRARQERLRQKEEGDVSGEVTEKSEVNAQNSVAEEETKRSTDDEAALLERLARREERRQKRLQEALERQKEFDPTITDGSLSVPSRREVNNVEENEITGKEEKVETRQGRCEIEETETVTKSYQRNNWRQDGEEEGKKEEKDSEEEKPKEVPTEENQVDVAVEKSTDKEEVVETKTLAVNAENDTNAMLEGEQSITDAADKEKEEAEKEREKLEAEEKERLKAEEEKKAAEEKQKAEEEKKAAEERERAKAEEEKRAAEERERAKAEEERKAAEERERAKAEEERKAAEERAKAEEERKAAEERAKAEEERKAAEERAKAEKERKAAEERERAKAEEEKRAAEEKARLEAEKLKEKKKMEEKKAQEEKAQANLLRKQEEDKEAKVEAKKESLPEKLQPTSKKDQVKDNKDKEKAPKEEMKSVWDRKRGVPEQKAQNGERELTTPKLKSTENAFGRSNLKGAANAEAGSEKLKEKQQEAAVELDELKKRREERRKILEEEEQKKKQEEAERKIREEEEKKRMKEEIERRRAEAAEKRQKVPEDGVSEEKKPFKCFSPKGSSLKIEERAEFLNKSAQKSGMKPAHTTAVVSKIDSRLEQYTSAVVGNKAAKPAKPAASDLPVPAEGVRNIKSMWEKGNVFSSPGGTGTPNKETAGLKVGVSSRINEWLTKTPEGNKSPAPKPSDLRPGDVSGKRNLWEKQSVEKPAASSSKVTATGKKSETNGLRQFEKEP	
inhibited		caldesmon: unphosphorylated smooth muscle caldesmon purified from chicken gizzard (protein, UniProt P12957 1-771, looked up) Caldesmon: MDDFERRRELRRQKREEMRLEAERLSYQRNDDDEEEAARERRRRARQERLRQKEEGDVSGEVTEKSEVNAQNSVAEEETKRSTDDEAALLERLARREERRQKRLQEALERQKEFDPTITDGSLSVPSRREVNNVEENEITGKEEKVETRQGRCEIEETETVTKSYQRNNWRQDGEEEGKKEEKDSEEEKPKEVPTEENQVDVAVEKSTDKEEVVETKTLAVNAENDTNAMLEGEQSITDAADKEKEEAEKEREKLEAEEKERLKAEEEKKAAEEKQKAEEEKKAAEERERAKAEEEKRAAEERERAKAEEERKAAEERERAKAEEERKAAEERAKAEEERKAAEERAKAEEERKAAEERAKAEKERKAAEERERAKAEEEKRAAEEKARLEAEKLKEKKKMEEKKAQEEKAQANLLRKQEEDKEAKVEAKKESLPEKLQPTSKKDQVKDNKDKEKAPKEEMKSVWDRKRGVPEQKAQNGERELTTPKLKSTENAFGRSNLKGAANAEAGSEKLKEKQQEAAVELDELKKRREERRKILEEEEQKKKQEEAERKIREEEEKKRMKEEIERRRAEAAEKRQKVPEDGVSEEKKPFKCFSPKGSSLKIEERAEFLNKSAQKSGMKPAHTTAVVSKIDSRLEQYTSAVVGNKAAKPAKPAASDLPVPAEGVRNIKSMWEKGNVFSSPGGTGTPNKETAGLKVGVSSRINEWLTKTPEGNKSPAPKPSDLRPGDVSGKRNLWEKQSVEKPAASSSKVTATGKKSETNGLRQFEKEP	
